Data: patent publication US20180142000A1
Positions count from the first letter of the chain named. Several values for one entry are separate records, joined by “and”; a condition that tells them apart may be missing. Equal values may be shown once. Read-outs that look alike come from different tables or passages of the source.

B1: FlagV6M (VHH)
VHH: QVKLEESGGGLVQAGGSLRVSCTASVSTFSINALGWYRQAPGKARELVAAIGSDGTVYYTDSVKGRFTISRDNAKNTVSLQMSSLKPEDTAVYYCNAAGKRIGSDGSIWFAVASFGSWGQGTQVTVSS
B2: FlagV1M (VHH)
VHH: QVKLEESGGGLVQAGGSRRLSCATSGLTFRNFHMAWFRQVAGKEREVVAAISWSRDRQYYPDPVKGRFTITRDNAKNTVYLQMNSLKPEDTAVYYCAARTASASGDWYKGSYQYWGQGTQVTVSS
B3: FlagV1F23M (VHH)
VHH: B2 VHH with K3Q, E5V
B4: FlagV1MDSB (VHH)
VHH: B2 VHH with A49C, I70C
B5: FlagV1F23MDSB (VHH)
VHH: B2 VHH with K3Q, E5V, A49C, I70C

Experiments:
[1] = target: C. jejuni (strain 81-176) flagella (Campylobacter jejuni strain 81-176)
[2] = target: C. jejuni (strain 81-176) flagella (Campylobacter jejuni strain 81-176); experiment: SPR (Biacore 3000), single-cycle kinetics, […]
[3] = target: C. jejuni (strain 81-176) flagella (Campylobacter jejuni strain 81-176); experiment: ELISA on coated flagella, approximate affinity

| Binder | Kd [1] | koff [1] | kon [1] | Kd [2] | koff [2] | kon [2] | Kd [3] |
| --- | --- | --- | --- | --- | --- | --- | --- |
| B1 | 25 nM | 0.03 s⁻¹ | 1e+06 M⁻¹ s⁻¹ |  |  |  |  |
| B2 |  |  |  | 23.9 nM | 0.00563 s⁻¹ | 236000 M⁻¹ s⁻¹ | 20 nM and 30 nM |
| B3 |  |  |  | 18.6 nM | 0.00426 s⁻¹ | 229000 M⁻¹ s⁻¹ |  |
| B4 |  |  |  | 18.2 nM | 0.0028 s⁻¹ | 153000 M⁻¹ s⁻¹ |  |
| B5 |  |  |  | 17.3 nM | 0.00286 s⁻¹ | 165000 M⁻¹ s⁻¹ |  |
